The source of these data is patent publication US20170355774A1 (Regeneron, published 2017).

Broadly, the Kd is the equilibrium constant for the complex coming apart. Low readings indicate tighter binding, high ones weaker binding. What is called koff is the rate constant with which the complex falls apart. High values mean a short-lived complex, low ones a long-lived complex. The term kon denotes a measure of how fast the partners come together. A higher kon goes with fast association. The term t½ denotes how long it takes for the measured level to halve. High values mean slow decline, low ones rapid decline. What is called EC50 is the concentration giving half of the maximal effect.

Assay [1] has as its target T1, human GITR (amino acids M1-V241, NCBI Accession #NP_004186.1) expressed on cells (human, UniProt Q9Y5U5 26-241).
T1 sequence: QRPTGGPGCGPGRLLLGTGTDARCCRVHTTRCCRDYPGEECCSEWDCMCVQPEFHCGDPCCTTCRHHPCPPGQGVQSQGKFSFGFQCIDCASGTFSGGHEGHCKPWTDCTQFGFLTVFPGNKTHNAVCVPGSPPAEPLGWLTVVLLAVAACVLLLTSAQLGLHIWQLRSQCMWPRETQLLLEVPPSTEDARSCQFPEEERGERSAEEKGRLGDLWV
Kind of assay: cell-based or functional assay.

The target in a further assay is T2, hGITR.mmh (human).
T2 construct: soluble monomeric construct; also called human (h) GITR.mmh; monomeric human GITR
T2 chain: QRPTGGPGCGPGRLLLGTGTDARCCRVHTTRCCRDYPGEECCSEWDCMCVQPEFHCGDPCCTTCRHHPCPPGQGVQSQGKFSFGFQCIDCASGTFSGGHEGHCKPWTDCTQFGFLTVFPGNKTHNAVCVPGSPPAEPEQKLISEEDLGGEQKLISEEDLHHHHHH
Kind of assay: SPR 37C, mAb capture. As to the method:
(§1) (Table 3). […] GITR proteins were injected over the sensor surface at a flow rate of 30 μL/minute. All Biacore binding studies were performed in a buffer composed of 0.01M HEPES pH 7.4, 0.15M NaCl, 3 mM EDTA, 0.05% v/v Surfactant P20 (HBS-ET running buffer). Antibody-reagent association was monitored for 4 minutes while dissociation in HBS-ET running buffer (10 mM HEPES, 150 mM NaCl, 3 mM EDTA, 0.05% (v/v) Surfactant P20, pH 7.4) was monitored for 10 minutes. Kinetic association (kₐ) and dissociation (kd) rate constants were determined by fitting the real-time sensorgrams to a 1:1 binding model using Scrubber 2.0c curve fitting software. Binding dissociation equilibrium constants (KD) and dissociative half-lives (t ½) were calculated from the kinetic rate constants as: KD [M]=kd/kₐ; and t_{1/2}(min)=(ln 2/(60*kd). Results are summarized in Table 3.

The target of a further assay is T3, hGITR.mFc (human).
T3 construct: soluble dimeric construct with mouse Fc; also called dimeric human GITR
T3 chain: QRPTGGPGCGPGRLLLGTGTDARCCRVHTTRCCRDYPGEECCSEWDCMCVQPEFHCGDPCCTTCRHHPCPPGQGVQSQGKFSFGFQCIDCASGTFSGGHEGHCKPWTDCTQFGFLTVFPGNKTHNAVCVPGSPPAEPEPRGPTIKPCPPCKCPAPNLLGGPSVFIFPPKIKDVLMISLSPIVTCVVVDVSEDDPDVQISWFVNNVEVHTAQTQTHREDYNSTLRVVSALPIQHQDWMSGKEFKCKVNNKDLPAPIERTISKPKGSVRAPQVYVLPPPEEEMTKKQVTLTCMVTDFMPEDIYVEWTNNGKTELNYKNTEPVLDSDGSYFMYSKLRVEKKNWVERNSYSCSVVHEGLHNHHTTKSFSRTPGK
The experiment in a line: SPR 37C, mAb capture. As to the method:
as §1

Another assay deals with T4, mfGITR.mmh (Macaca fasicularis).
T4 construct: soluble monomeric construct; also called Macaca fasicularis (mf) GITR.mmh; cynomolgus GITR protein
T4 chain: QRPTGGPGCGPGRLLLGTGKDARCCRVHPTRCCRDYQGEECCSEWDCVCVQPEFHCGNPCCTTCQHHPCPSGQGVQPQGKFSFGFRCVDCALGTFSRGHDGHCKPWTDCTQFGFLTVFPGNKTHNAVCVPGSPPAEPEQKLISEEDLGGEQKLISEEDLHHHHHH
Kind of assay: SPR 37C, mAb capture. How it is done: as §1

For assay [2], the target named is T1, human GITR (amino acids M1-V241, NCBI …). Kind of assay: ECL cell binding, hGITR/HEK293-D9. As to the method:
Nonspecific binding sites were blocked with 2% BSA (w/v)+PBS for 1 h at room temperature (RT). Next, serial dilutions of anti-GITR antibodies, ranging from 1.7 pM to 100 nM, were added to cells for 1 h at RT. Plates were then washed to remove unbound antibodies (AquaMax2000 plate washer, MSD Analytical Technologies) and plate-bound antibodies were detected with a SULFO-TAG™ conjugated anti-human kappa light chain IgG antibody (Jackson Immunoresearch) for 1 h at RT.
Following washes, luminescent signals were recorded with a SECTOR Imager 6000 (MSD) instrument. Direct binding signals (relative light units, RLU) were analyzed as a function of the antibody concentration and data were fitted with a sigmoidal (four-parameter logistic) dose-response model using GraphPad Prism™ software. […] The signal detected with 100 nM antibody binding to the hGITR expressing cells versus parental cells was recorded as an indication of intensity and specificity of GITR binding.

The target is the same in assay [3]. The experiment in a line: cell-based or functional assay. The source holds these as a separate data set.
Assay [4] has the same target. The experiment in a line: cell-based or functional assay. The source holds these as a separate data set.

Residue numbers refer to the chain shown, from its start. In names and notes the source's numbering stands.

B1: H1H14520P (antibody, human IgG1, V domains shown)
VH: QVQLVESGGGVVQPGRSLRLSCAASGFTFSSFGMHWVRQAPGKGLEWVAVISYDGRNRYYADSVKGRFTISRDNSKNTLYLQMNSLSAEDTAMFYCAKDGFGNSFDYWGQGTLVTVSS
VL: DVVMTQSPLSLPVTLGQPASISCRSSQSLLYSDGNTYLTWFQQRPGQSPRRLIYKVSNRDSGVPDRFSGSGSGTDFTLTISRVEAEDVGIYYCMQGTHWPWTFGQGTKVEIK
notes: human IgG1 (H1H)
For the molecule B1, in assay [1], the “% Activation, NF-kB-Luc, non-anchored” value came to 10%; the “% Blocking, NF-kB-Luc, non-anchored” value amounted to 80%; the “EC50, hGITR activation, NF-kB-Luc, non-anchored” value (shortened to “EC50 … non-anchored”) amounted to 1.1 nM; the “IC50, blocking of hGITRL stimulation, NF-kB-Luc, non-anchored” value (shortened to “IC50, blocking … non-anchored”) was determined as 0.9 nM. In the assay with hGITR.mmh, this molecule displayed a Kd of 63 nM, a koff of 0.0167 s⁻¹, a kon of 266000 M⁻¹ s⁻¹ and a t½ of 0.7 min. In the assay with hGITR.mFc, the affinity, expressed as Kd, was 0.537 nM; the koff came to 0.000583 s⁻¹; the kon is 1.09e+06 M⁻¹ s⁻¹; the t½ worked out at 19.8 min. Besides, in the assay with mfGITR.mmh, binding was put at a Kd of 85.9 nM, the koff is 0.0171 s⁻¹, the kon stood at 199000 M⁻¹ s⁻¹ and the t½ was 0.7 min. For the same molecule, in assay [2], the “Average Signal (RLU) at 100 nM” value turned out to be 6450 RLU and the response was half-maximal at 0.24 nM (EC50).

B2: H1H14491P (antibody, human IgG1, V domains shown)
VH: QVQLVESGGGVVQPGRSLRLSCVASGFTFSDYGMHWVRQAPGKGLEWVAVIWYEGSNKYYADSVTGRFTISRDNSKNTLFLQMNSLKAEDTAEYYCAKDGGQLAYQYYYGMDVWGQGTTVTVSS
VL: AIQMTQSPSSLSASVGDRVTLTCRASQGIRNDLGWYQQKPGKAPKSLIYAASNLQSGVPSRFSGSGSGTDFTLTISSLQPEDSATYYCLQDYNYPRTFGQGTKVEIK
notes: human IgG1 (H1H)
B2: in assay [1], the “% Activation, NF-kB-Luc, non-anchored” value came out at 60%; the “% Blocking, NF-kB-Luc, non-anchored” value was found to be 90%; the “EC50 … non-anchored” value turned out to be 2 nM; the “IC50, blocking … non-anchored” value turned out to be 0.6 nM. In addition, in the assay with hGITR.mmh, the Kd worked out at 5.06 nM, the koff was 0.00162 s⁻¹, the kon was 319000 M⁻¹ s⁻¹ and the t½ came out at 7.2 min. In the assay with hGITR.mFc, this molecule returned a Kd of 0.201 nM, a koff of 0.000169 s⁻¹, a kon of 842000 M⁻¹ s⁻¹ and a t½ of 68.3 min. In the assay with mfGITR.mmh, this molecule gave a Kd of 75.3 nM, a koff of 0.00889 s⁻¹, a kon of 118000 M⁻¹ s⁻¹ and a t½ of 1.3 min. Also, in assay [2], the “Average Signal (RLU) at 100 nM” value is 6840 RLU and the EC50 is 0.4 nM.

B3: H4H14476P (antibody, human IgG4, V domains shown)
VH: QVQLVESGGGVVQPGRSLRLSCAASGFTFSNYGIHWVRQPPGQGLEWVAVIWYAGSNKFYADSVKGRFTISRDNSKNSAYLQMNSLRAEDTAVYYCARAPLGYYYYGMDVWGQGTTVTVSS
VL: DIQMTQSPSSLSASVGDRVTITCRASQGIRNDLGWYQQKPGKAPKRLIYDASSLESGVPSRFSGSGSGTEFTLTISSLQPEDFATYYCLQHNSYPWTFGQGTKVEIK
notes: human IgG4 (H4H)
Turning to B3, in assay [3], the “fold activation, T-cell proliferation, 33 nM, FcgR anchored, donor 1” value turned out to be 0.6 fold; the “fold activation, T-cell proliferation, 33 nM, FcgR anchored, donor 2” value was 0.2 fold; the “fold activation, T-cell proliferation, 33 nM, FcgR anchored, donor 3” value stood at 0.8 fold; the “fold activation, T-cell proliferation, 33 nM, FcgR anchored, donor 4” value was 0.8 fold. In assay [3], the “fold activation, T-cell proliferation, 33 nM, FcgR anchored, donor 5” value came to 0.1 fold and the “fold activation, T-cell proliferation, 33 nM, FcgR anchored, mean” value is 0.5 fold. For the same molecule, in assay [1], the “% Activation, NF-kB-Luc, non-anchored” value stood at 10%; the “% Blocking, NF-kB-Luc, non-anchored” value stood at 90%; the “EC50 … non-anchored” value is 1 nM; the “IC50, blocking … non-anchored” value was found to be 2.6 nM. For the same molecule, in assay [4], the “fold activation, T-cell proliferation, 22 nM, non-anchored, donor 1” value is 0.7 fold; the “fold activation, T-cell proliferation, 22 nM, non-anchored, donor 2” value was 0.9 fold; the “fold activation, T-cell proliferation, 22 nM, non-anchored, donor 3” value was 0.9 fold; the “fold activation, T-cell proliferation, 22 nM, non-anchored, donor 4” value stood at 0.8 fold. Also, the “fold activation, T-cell proliferation, 22 nM, non-anchored, mean” value in assay [4] was 0.8 fold. In the assay with hGITR.mmh, this molecule displayed a Kd of 31.4 nM, a koff of 0.0123 s⁻¹, a kon of 392000 M⁻¹ s⁻¹ and a t½ of 0.9 min. For the same molecule, in the assay with hGITR.mFc, the affinity, expressed as Kd, was 0.297 nM; the off-rate constant (koff) turned out to be 0.000269 s⁻¹; the kon amounted to 906000 M⁻¹ s⁻¹; the t½ was 42.9 min. In the assay with mfGITR.mmh, this molecule came in with a Kd of 55.8 nM, a koff of 0.0107 s⁻¹, a kon of 191000 M⁻¹ s⁻¹ and a t½ of 1.1 min. For the same molecule, in assay [2], the “Average Signal (RLU) at 100 nM” value was 8120 RLU and the concentration giving a half-maximal response (EC50) is 0.57 nM.

B4: H1H14486P (antibody, human IgG1, V domains shown)
VH: QVQLVESGGGVVQPGRSLRLSCAASGFTFSNYGMHWVRQAPGKGLEWVAVIWYPGSNKFYTDSVEGRFTISRDNSKNTVYLQMDSLRAEDTAVYYCARGGALGVDYYYGMDVWGQGTTVTVSS
VL: B2 VL with K45N, S46F, A50S, N53S, S83F, D91N, R96W
notes: human IgG1 (H1H)
For the molecule B4, in assay [1], the “% Activation, NF-kB-Luc, non-anchored” value is 30%; the “% Blocking, NF-kB-Luc, non-anchored” value came out at 50%; the “EC50 … non-anchored” value turned out to be 1.2 nM; the “IC50, blocking … non-anchored” value worked out at 1.1 nM. In the assay with hGITR.mmh, this molecule displayed a Kd of 2.79 nM, a koff of 0.00123 s⁻¹, a kon of 439000 M⁻¹ s⁻¹ and a t½ of 9.4 min. In the assay with hGITR.mFc, this molecule yielded a Kd of 0.159 nM, a koff of 0.000153 s⁻¹, a kon of 965000 M⁻¹ s⁻¹ and a t½ of 75.5 min. In the assay with mfGITR.mmh, the Kd came to 122 nM, the koff was 0.0166 s⁻¹, the kon is 137000 M⁻¹ s⁻¹ and the t½ was 0.7 min. For the same molecule, in assay [2], the “Average Signal (RLU) at 100 nM” value was 5830 RLU and the response was half-maximal at 0.43 nM (EC50).

B5: H1H14493P (antibody, human IgG1, V domains shown)
VH: QVQLVESGGGVVQPGRSLRLSCAASGFNFRSYGMHWVRQAPGKGLEWVAVIWYDGSNKYYADSVKGRFTISRDSSRDTLFLQMNSLRAGDTAVYYCARGGMLGRDYYYGMDVWGQGTTVTVSS
VL: B3 VL with D50A, E55Q, W96N, V104L
notes: human IgG1 (H1H)
Take B5: in assay [1], the “% Activation, NF-kB-Luc, non-anchored” value was determined as 25%; the “% Blocking, NF-kB-Luc, non-anchored” value was 90%; the “EC50 … non-anchored” value is 1.2 nM; the “IC50, blocking … non-anchored” value came out at 0.6 nM. Further, in the assay with hGITR.mmh, the Kd turned out to be 13.4 nM, the koff is 0.0025 s⁻¹, the kon turned out to be 186000 M⁻¹ s⁻¹ and the t½ was found to be 4.6 min. In the assay with hGITR.mFc, the Kd was 0.365 nM, the koff turned out to be 0.000191 s⁻¹, the kon stood at 524000 M⁻¹ s⁻¹ and the t½ came out at 60.4 min. In the assay with mfGITR.mmh, this molecule showed a Kd of 1400 nM, a koff of 0.014 s⁻¹, a kon of 10000 M⁻¹ s⁻¹ and a t½ of 0.8 min. Also, in assay [2], the “Average Signal (RLU) at 100 nM” value worked out at 7220 RLU and the EC50 came out at 0.3 nM.
